From paper PMC3848981 (PLoS Biology, 2013)

Assays:
TRAF4 = molecular target: T1, TRAF4 (Homo sapiens, UniProt Q9BUZ4); assay: isothermal titration calorimetry; type: binding
T1 construct: TRAF domain (TRAF-6His), homotrimer
T1 sequence (Q9BUZ4 283-470): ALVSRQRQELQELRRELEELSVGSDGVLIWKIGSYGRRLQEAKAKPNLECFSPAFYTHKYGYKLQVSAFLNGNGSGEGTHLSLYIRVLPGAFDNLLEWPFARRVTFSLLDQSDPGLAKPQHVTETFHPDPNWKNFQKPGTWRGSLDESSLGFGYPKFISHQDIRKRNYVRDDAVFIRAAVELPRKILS

[1] = molecular target: the molecule itself; assay: native MS; ESI-TOF in native condition, TRAF-6His alone (no lipid), 20 pmol/µL protein in ammonium bicarbonate buffer (100 mM NH4HCO3 pH 8)
[2] = molecular target: the molecule itself; assay: SEC + other: dynamic light scattering; gel filtration of 1 ml containing 1 mg WT or 0.3 mg K345E TRAF domain; DLS with 20 µM protein at 25°C in 10 mM Tris pH 7.5, 150 mM NaCl

Q: O=P(O)(O)O[C@H]1[C@H](O)[C@@H](OP(=O)(O)O)[C@H](OP(=O)(O)O)[C@@H](OP(=O)(O)O)[C@H]1O [IP4, inositol-(1,3,4,5)-tetrakisphosphate] was tested. Which Kd (TRAF4) did it give?
A: 5.68 µM

B1: TRAF domain of human TRAF4 fused to a 6His tag (TRAF-6His) (domain or fragment, UniProt Q9BUZ4 283-470, looked up)
chain: ALVSRQRQELQELRRELEELSVGSDGVLIWKIGSYGRRLQEAKAKPNLECFSPAFYTHKYGYKLQVSAFLNGNGSGEGTHLSLYIRVLPGAFDNLLEWPFARRVTFSLLDQSDPGLAKPQHVTETFHPDPNWKNFQKPGTWRGSLDESSLGFGYPKFISHQDIRKRNYVRDDAVFIRAAVELPRKILS
notes: Tumor necrosis factor receptor-associated factor 4 (TRAF4), human, TRAF domain; the crystal structure includes residues 283-470 of the TRAF domain; Printed monomer mass 22.6 kDa; also called TRAF4-TRAF domain; WT TRAF domain
Q: With B1 as the molecule, how does the “stoichiometry N” value [1] read?
A: 3

B2: K345E mutant TRAF domain of TRAF4 (domain or fragment, human, UniProt Q9BUZ4 283-470, looked up)
chain: ALVSRQRQELQELRRELEELSVGSDGVLIWKIGSYGRRLQEAKAKPNLECFSPAFYTHKYGYELQVSAFLNGNGSGEGTHLSLYIRVLPGAFDNLLEWPFARRVTFSLLDQSDPGLAKPQHVTETFHPDPNWKNFQKPGTWRGSLDESSLGFGYPKFISHQDIRKRNYVRDDAVFIRAAVELPRKILS
notes: Tumor necrosis factor receptor-associated factor 4 (TRAF4), human, TRAF domain with K345E; same limits as the wild-type TRAF domain, whose structure includes residues 283-470; also called TRAF-K345E; TRAF-6HIS K345E; source: E. coli, purified
Q: How did the “stoichiometry N” value [2] turn out when B2 was run?
A: 3
